Measurements: the DeepSol protein solubility set

Assay: soluble on expression in E. coli; label from the status in PepcDB or PDB records

Sequence	soluble on expression in E. coli
MYVIDTSAIISRNLNLLEGDLMFPSSVIGEIKKGKLRYMIDVLLPMIRVASPDHEYLKIVEETAAKTGDLMNLSQTDKDVLALALQYDATIVTDDYSIQNVASYLNLGFLNA	soluble
MKIVWYGHACFLVKTKGVSILIDPYPDVDEDRMEKVDYILITHEHMDHYGKTPLIAKLNDAEVIGPKTVYLMAISDGLTKVREVEADQEFQLGDVTVKTFYTEHPTSQYPLGYLILGEKRVAHLGDTYYSPGFRELRGQVDILLVPIGGRSTASEREAVDIIDIIRPRIVVPMHYGTYGSTGNVESFKRELQRRRVWVLVKDLKPYEGFEV	soluble
PEIAEVVIGVGENAVKIGGEEVLHRHELTFFNPTGFFYDVWDTMDDKALEERCDRVVSYKKFYVGNFLTLDGFAVRCTSGDPKRYREVVKKVASYGKPLILVALDSECMKAALEEVADQRPLMYAATEGNWKEFLKLALEYKVPVTLRAKDLDLLKSMAVTFKQAGVKDIVLDPVTEPLGEGLKGTFERVIQLRRTAIAGQDKDVAYPIMITPIAAWLIEGDDVTKSYWEAVIASIFIVKYGDVMIFRSIDQHVVMPTITLRFNIYTDPRTPVQVEPGLRAINDPGPDDPVFITTNFALTYYTVESDLTSGGIKGWLLVLNTEGLGVEVSVAGGQFTASKVKELIEETKIEEKVNHRYLVIPGLAARLQGAIEDETGWKVLVGPMDSGRIKGWLEKNWP	not soluble
MSYSIVRVSKVKSGTNTTGIQKHVQRENNNYENEDIDHSKTYLNYDLVNANKQNFNNLIDEKIEQNYTGKRKIRTDAIKHIDGLITSDNDFFDNQTPEDTKQFFEYAKEFLEQEYGKDNLLYATVHMDEKTPHMHYGVVPITDDGRLSAKEVVGNKKALTAFQDRFNEHVKQRGYDLERGQSRQVTNAKHEQISQYKQKTEYHKQEYERESQKTDHIKQKNDKLMQEYQKSLNTLKKPINVPYEQETEKVGGLFSKEIQETGNVVISQKDFNEFQKQIKAAQDISEDYEYIKSGRALDDKDKEIREKDDLLNKAVERIENADDNFNQLYENAKPLKENIEIALKLLKILLKELERVLGRNTFAERVNKLTEDEPKLNGLAGNLDKKMNPELYSEQEQQQEQQKNQKRDRGMHLLEHHHHHH	soluble
MAHHHHHHMANNNMDDINLECENDNDNKISSEKRLVDEIIENNIEEIKKKEKDNKEKDNKEKDNKEKDIMFNIKNGLCDLEKTLDGEGYAYSNLTCRKKGIDFIPKSITRYIHLKYINLSHNNINDLVHLYFLPNIIFLDVSYNMLKEIVELKKEYLKNCIYINLSHNLISHMNNIFLKNLLEFNISYNTINNINIYISNTIRILNLSNNNIKNINFKNKLNNLLDLDISFNPIENLDFHTLMPNLVVLRINDNSTISMDKLNNLNNFKCLQSLFMQNYLYFKDISYKDVKEILLQNSKDIHLLKFNGNRLNKKTDHIEQADVNK	soluble
MSDVRPPLPPFTAETAAQKVRAAEDGWNSRDPQRVSLAYSPDSVWRNRSTFVRGRERIVEFLSGKWQREQEYRLIKELWAFTGNRIAVRFAYEWHDDSGNWFRSYGNENWAFDEQGLMYERHASINDLPIREDQRLFRWLLGRRPDNHPSLGELGLLEHHHHHH	soluble
MKRVMFHAKIHRATVTQADLHYVGSVTVDQDLLDAAGILPFEQVDIYDITNGARLTTYALPGERGSGVIGINGAAAHLVKPGDLVILVAYGVFDEEEARNLKPTVVLVDERNRILEVRKG	soluble
MHHHHHHSSGVDLGTENLYFQSMNGPEDLPKSYDYDLIIIGGGSGGLAAAKEAAQYGKKVMVLDFVTPTPLGTRWGLGGTCVNVGCIPKKLMHQAALLGQALQDSRNYGWKVEETVKHDWDRMIEAVQNHIGSLNWGYRVALREKKVVYENAYGQFIGPHRIKATNNKGKEKIYSAERFLIATGERPRYLGIPGDKEYCISSDDLFSLPYCPGKTLVVGASYVALECAGFLAGIGLDVTVMVRSILLRGFDQDMANKIGEHMEEHGIKFIRQFVPIKVEQIEAGTPGRLRVVAQSTNSEEIIEGEYNTVMLAIGRDACTRKIGLETVGVKINEKTGKIPVTDEEQTNVPYIYAIGDILEDKVELTPVAIQAGRLLAQRLYAGSTVKCDYENVPTTVFTPLEYGACGLSEEKAVEKFGEENIEVYHSYFWPLEWTIPSRDNNKCYAKIICNTKDNERVVGFHVLGPNAGEVTQGFAAALKCGLTKKQLDSTIGIHPVCAEVFTTLSVTKRSGASILQAGCGG	soluble
MGSDKIHHHHHHMNKINRVAIVGGTHGNEFTGAFLVKKFQQFPEVIQKPSFETLTILGNPKAFEAGKRYIEKDLNRCFLTESLQNTNLSSYEDIRAKQIAGVLGAENKPNVDVVIDLHSTTANMGLSIILGNQDPFLLKLCAYLSDINPLVKVCYTIPEKGSNFLRSLNKLGFVIEVGAVAQGVLNAELFQKTEQLIYTILDYLEQYNRGNIPKINNLLALYKFTGTVDYPRNENGDIQGMIHPDIQFRDYEPLNPGDPLFLTLDGKAIAYEGTSTVYPIFINEAAYYEKGIAMLFTEKQLINPSS	not soluble
MRVIVTEYQPAWVEQFEEEAQALKQILKENCLKVEHIGSTSVPNLAAKPIIDFLVIVEEIEKVDLLQWEFERIGYEYMGEFGLSGRRYLRKGPIKRTHHVHIYQFDNTQEILRHLAFRNYLRENPAIATTYGTLKKQLAQAHPDSIDKYMDGKDAFIKKIEKEALKKYWEK	not soluble
MKLVICIVQDDDAGELIDVLTDKGLRVTKLATTGGFLKAGNTTLMIGVEEKAVDGVIETIEDVCKTRQQVVTSPSPVAGSTGVYVPYPIDVEVGGATIFVVDVDKFIKI	not soluble
MDIYERQVRVEAPLAEVWKFHATGDGLVALTPDWMNIRIEAERGPDGEPNPDELTAGSVVESSIKPFGVPPRQQWVSNIVAREEGEDEAMFRDVMEEGPFPHWEHTHTFRALSDRETLVHDHVEFELPGGPLGRALGPFGCLGMEPMFRYRHQQTKKLLEGLEHHHHHH	not soluble
MGSDKIHHHHHHMALDQDGIQKVQKISTGIERLDDLFYGGFDRNDNVVVRGNNFSQKRSFIYSFIKKSANSGIGVVLVDFDFPSEGIMADLVRSGTNTDMVHILDGFAKPFQISAPSNTEMLDDPGNIPSVLKQITSTVQKMDEYVFVMLSATRYLIAKDQNTDRFFVQLINMNRKRSLVSIYAVDDFVPEDRSEWFAYLMDSALHFRNAGARAYLRVLTLKRIRTKEWVRIYPEEGTFTLGSFNVERIK	not soluble
GDTKEQRILNHVLQHAEPGNAQSVLEAIDTYCEQKEWAMNVGDKKGKIVDAVIQEHQPSVLLELGAYCGYSAVRMARLLSPGARLITIEINPDCAAITQRMVDFAGMKDKVTLVVGASQDIIPQLKKKYDVDTLDMVFLDHWKDRYLPDTLLLEECGLLRKGTVLLADNVICPGAPDFLAHVRGSSCFECTHYQSFLEYREVVDGLEKAIYKGP	soluble
GSVDIEVQDLEEFALRPAPQGITIKCRITRDKKGMDRGMFPTYFLHLDREDGKKVFLLAGRKRKKSKTSNYLISVDPTDLSRGGDSYIGKLRSNLMGTKFTVYDNGVNPQKASSSTLESGTLRQELAAVCYETNVLGFKGPRKMSVIVPGMNMVHERVCIRPRNEHETLLARWQNKNTESIIELQNKTPVWNDDTQSYVLNFHGRVTQASVKNFQIIHGNDPDYIVMQFGRVAEDVFTMDYNYPLCALQAFAIALSSFDSKLACE	soluble
MTQTNNPLHGITLETIITQLVEHYGWEELGARIKIRCFTEAPSIKSSLRFLRKTDWAREKVEYLYLKTNKLPLPAAKSIQAPAKEPSKKSAPKPNSKPTQTKVVTPTPAVEGQVNSHIWGKRDLEHHHHHH	soluble
MDSPAWMFTKALSHRQKVTRLYKRCLREVDNWYGGNNLEVRFQKCIIRARFDANADEVDTRKSQILLADGCRQLWEKRHFKPFRFALDPGGSSYDRERESPDEIVDSDQWTLAEREQFPYYFNTREQRKKELLTHWAKIEKAWDEEIASIQTQLPAAAPTVSK	not soluble
KGIFSWESALTATYNKNEILDLNSETPMFINQIGNSYVTMLKAGYPINVFYGYVTDGLFQNWGEVNRHATQPGAAPGDIRFRDLNNDGVINDEDRTILGNPNPNWFFSLSNNLSYKGWELSVFLQGVAGNKIYNANNVDNEGMAAAYNQTTAVLNRWTGEGTSYSMPRAIWGDPNQNCRVSDRFVENGSYLRLKNITLSYTLPKKWLQKIQLENARISFSCENVATITRYSGFDPEVDVNGIDSSRYPISRTFSMGLNFNF	not soluble
MGSDKIHHHHHHMLQLNSPHVHNLFNTPFSAAIMDDVVIGLEVHVQLNRLRTKLFCSCPLNYHQSPPNTHVCPVCLGMPGAMPVINKEAVKAAVKVAMALNAEIQPFTVFDRKNYFYPDLPKGFQISQYDRPLALGGYVTIELDGQEKRIQLKRVHMEEDPGKLSYKGSITTAKYSLIDYNRSGAPLLEIVTEPVMNSPKEARLFLNKLRMILEYLEVFDGDLEGAMRVDANISIRGSGRVEIKNISSFKGVEKALSYEIMRQKNLLQRGRSVVRETRHFDEARNITVSLRSKEEEQDYRYFPEPDLVPVLTEEIVREVEGTLPEMPEEKRERLKRQYGIGDNFAKVLILDVKMADYFEEVAKLVDPKLAASWIVDVLRGELNYRDWSFAKCWEVFKPEEFAKLLKYFEEDRITEKGVVEVIRTKLDEGGEIDAIIQKKGLFAIPKEEIIKFCKEAIEENPKAVEDYLSGKRQALNFLVGQVMKKTRGRADPADTAKLIEEMLS	not soluble
MSLYKGYLIDLDGTIYKGKDRIPAGETFVHELQKRDIPYLFVTNNTTRTPESVKEMLAQNFNIDTPLSTVYTATLATIDYMNDLGLEKTVYVVGEAGLKEAIKAAGYVEDKEKPAYVVVGLDWQVDYEKFATATLAIQKGAHFIGTNPDLNIPTERGLLPGAGSLITLLEVATRVKPVYIGKPNAIIMDKAVEHLGLEREELIMVGDNYLTDIRAGIDNGIPTLLVTTGFTKAEEVAGLPIAPTHVVSSLAEWDFDENEGHHHHHH	soluble
SETESDAEVACDLSNMEITEELRQYFAETERHREELLRRQQLDAERLNSYVNAEHDLYCNTRRSVEAPAERPGERRQAEMKRLYWDSAAKIQAMEANVQLSFDKHCDPKQPNYWPVIPPKF	soluble
MVGVRMTKKVLIVEDNELNMKLFHDLLEAQGYETLQTREGLSALSIARENKPDLILMDIQLPEISGLEVTKWLKEDDDLAHIPVVAVTAFAMKGDEERIREGGCEAYISKPISVVHFLETIKRLLERQPA	soluble
GPLGSDFPQHSQHVLEQLNQQRQLGLLCDCTFVVDGVHFKAHKAVLAACSEYFKMLFVDQKDVVHLDISNAAGLGQVLEFMYTAKLSLSPENVDDVLAVATFLQMQDIITACHALKSLA	soluble
MATLFIADLHLCVEEPAITAGFLRFLAGEARKADALYILGDLFEAWIGDDDPNPLHRQMAAAIKAVSDSGVPCYFIHGNRDFLLGKRFARESGMTLLPEEKVLELYGRRVLIMHGDTLCTDDAGYQAFRAKVHKPWLQMLFLALPLFVRKRIAARMRANSKEANSSKSLAIMDVNQNAVVSAMEKHQVQWLIHGHTHRPAVHELIANQQPAFRVVLGAWHTEGSMVKVTADDVELIHFPFLEHHHHHH	not soluble
MCTALMAIPEDGDTEVVSEKTFKVFSLLNLDAPYLHDKAHVTEEEEITGCCGRRKGALIATMQVDEIGVMPGMTSKISLTVENKTKKRKKWMRKKDNHECVLLSLCQQLDFVAVNRNDPMMIDRKSITIAVESHGTCKTKAGVGPQTKEIEFSVPPNLPPTSIHANRLVTVSYFFKLDLDHFDLVLPVIVGSVKSSASNGSEK	not soluble
MENTEKLKNSKEVIAYIAECFPNCFTLEGEAKPLKIGIFQDLADRLNDDPKVSKTQLRAALRQYTSSWRYLHGVKPGATRVDLDGNPCGELEEQHVEHAQAALAESKARVEARRKEQVKKVREEAKANKPKAKKPQQARRPQNAPKVEKKPVETRALAASELNVGNQVNVNMGKGNMAATIVEVNKEDVRVQLANGLQMVVKAEHLRA	not soluble
